Results taken from article PMC6292215 (Cell reports, 2018).

Target: T1, full-length Human recombinant CHERP with an N-terminal HIS (human, UniProt Q8IWX8 1-916)
T1 sequence: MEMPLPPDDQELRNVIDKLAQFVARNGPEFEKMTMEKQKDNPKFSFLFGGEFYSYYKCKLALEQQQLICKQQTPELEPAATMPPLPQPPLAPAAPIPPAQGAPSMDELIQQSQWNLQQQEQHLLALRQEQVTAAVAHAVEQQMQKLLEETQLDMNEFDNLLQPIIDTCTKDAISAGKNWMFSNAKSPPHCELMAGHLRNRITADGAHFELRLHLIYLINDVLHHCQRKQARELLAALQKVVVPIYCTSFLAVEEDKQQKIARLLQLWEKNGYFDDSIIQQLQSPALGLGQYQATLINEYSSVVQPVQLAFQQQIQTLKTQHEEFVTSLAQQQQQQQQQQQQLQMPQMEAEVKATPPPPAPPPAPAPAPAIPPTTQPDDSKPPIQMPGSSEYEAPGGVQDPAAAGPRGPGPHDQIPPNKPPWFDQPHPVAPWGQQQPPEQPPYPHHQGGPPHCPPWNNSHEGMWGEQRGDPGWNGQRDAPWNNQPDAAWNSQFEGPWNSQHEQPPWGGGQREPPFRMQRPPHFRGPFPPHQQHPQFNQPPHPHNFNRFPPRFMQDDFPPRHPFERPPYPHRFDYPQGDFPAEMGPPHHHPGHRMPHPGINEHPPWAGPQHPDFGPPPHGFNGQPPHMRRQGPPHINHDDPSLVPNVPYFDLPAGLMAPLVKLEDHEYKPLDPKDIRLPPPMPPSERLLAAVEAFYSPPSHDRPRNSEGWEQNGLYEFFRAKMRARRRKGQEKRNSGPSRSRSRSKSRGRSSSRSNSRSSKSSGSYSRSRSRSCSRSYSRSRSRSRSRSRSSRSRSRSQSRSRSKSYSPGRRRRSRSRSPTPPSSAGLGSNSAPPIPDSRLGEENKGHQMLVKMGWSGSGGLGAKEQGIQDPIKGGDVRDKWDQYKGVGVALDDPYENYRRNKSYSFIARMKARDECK
Test: pull-down

- binding result: binds
B1: Full-length Human RBM17 recombinant protein with an N-terminal GST tag (natural protein)
chain: MSLYDDLGVETSDSKTEGWSKNFKLLQSQLQVKKAALTQAKSQRTKQSTVLAPVIDLKRGGSSDDRQIVDTPPHVAAGLKDPVPSGFSAGEVLIPLADEYDPMFPNDYEKVVKRQREERQRQRELERQKEIEEREKRRKDRHEASGFARRPDPDSDEDEDYERERRKRSMGGAAIAPPTSLVEKDKELPRDFPYEEDSRPRSQSSKAAIPPPVYEEQDRPRSPTGPSNSFLANMGGTVAHKIMQKYGFREGQGLGKHEQGLSTALSVEKTSKRGGKIIVGDATEKDASKKSDSNPLTEILKCPTKVVLLRNMVGAGEVDEDLEVETKEECEKYGKVGKCVIFEIPGAPDDEAVRIFLEFERVESAIKAVVDLNGRYFGGRVVKACFYNLDKFRVLDLAEQV
